# Assay results published in the RNAGym collection of RNA variant scans (doi:10.1073/pnas.2313332121).
# This sample holds only a part of the variants without activity.
# B1: TPR 5TU (parent)
# chain: GGAUCUUCUCGAUCUAACAAAAAAGACAAAUCUGCCACAAAGCUUGAGAGCAUCUUCGGAUGCAGAGGCGGCAGCCUUCGGUGGCGCGAUAGCGCCAACGUUCUCAACUAUGACACGCAAAACGCGUGCUCCGUUGAAUGGAGUUUAUCAUG
# Variants of: B1
# Test: polymerase ribozyme fitness, log enrichment relative to wild type (log ratio); higher = more active; in vitro selection for triplet polymerase activity
# Outline: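 Mutant libraries for each subunit of a heterodimeric triplet polymerase ribozyme were made by PCR and then transcribed. Each library underwent one round of in vitro selection in triplicate: annealing with a biotinylated primer, the partner subunit and triplets, frozen incubation at −7 °C, gel excision of extended constructs, streptavidin-bead capture and RT-PCR. Input and output libraries were Illumina-sequenced, and only genotypes with ≥10 input reads and ≥1 read per output were kept. Fitness is the logarithm, base 2, of genotype enrichment over wild-type enrichment, computed from inverse-variance-weighted replicate averages.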
row,Variant,polymerase ribozyme fitness (log ratio)
1,GGAUCUUCUCGAUCUAACAAAAAAGACAAGUCUGCCACAAAGCUUGAGAGCAUUUUCGGAUGCAGAGGCGGCAGCCUUCGGUGGCGCGAUUGCGCCAACGUGCUCAACGGUGACACGCAAAACGCGUGCUCCCUUGAAUGGAGUUUUUCAUG [A30G C54U A91U U102G U109G A110G G133C A147U],≤ -4.2
2,GGAUCUUCUCGAUCUAACAAAAAAGACAAGUCUGCCACAAAGCUUGAGAGCAUCUUCGGAUGCCGUGGCGGCAGCCUUCGGUGGCGCGAUAGCGCCAAUGUACUCAACUAUGACACACAAAACGCGUGCUCCGUUGAAUGGAGUGUAUCAUG [A30G A64C A66U C99U U102A G117A U145G],≤ -4.2
3,GGAUCUUCUCGAUCUAACAAAAAAGACAAGUCUGCCACAAAGCUUGAGGGCAUCUUCGGAUGCAGAGGCGGCAGCCUUCGGUGGCGCGAUAGCGCCAACGUUCUCAACUAUGACACGCAAAACGCGUGCUCCGUUGAAUGGAGUUUAUCAUG [A30G A49G],≤ -4.2
4,GGAUCUUCUCGAUCUAACAAAAAAGACAAGUCUGCCACAAAGCUUGAGGGCAUCUACGGAUGCAGUGGCGGCAGCCUUUGGUGGUGCGAUAGCGCCAACGUUCUCAACUAUGACACGCAAAACGCGUACUCCGUUGAAUGGAGUUUAUCAUG [A30G A49G U56A A66U C79U C85U G128A],≤ -4.2
5,GGAUCUUCUCGAUCUAACAAAAAAGACAAGUCUGCCAUAAAGCUUGAGAGCAUGUUCGGAUGCAGAGGCGGGAGGCUUCGGUGGCGCGAUAGCGCGAACGUUCUCAACUAUGACACGCAAAACGCGUGCUCCGUUGAAUGGAGUUUUUCAUG [A30G C38U C54G C72G C75G C96G A147U],≤ -4.2
6,GGAUCUUCUCGAUCUAACAAAAAAGACAAGUCUGCCACAAAGCUUGAGAGCAUCUUCGGAUGCAGAGGCGGCAGCCUUCGGUGGCGCGAUAGCGCCAACGUUCUCAACUAUGACACGCAAAACGCGUGCUCCGUUGAAUGGAGUUUAUGAUG [A30G C149G],≤ -4.2
7,GGAUCUUCUCGAUCUAACAAAAAAGACAAUUCUGCCACAAAGCUUGAGAGCAUCUUCGGAUGCAGAGGCGGCAGCCUUCGGUGGAGCGAUAGCGACAACGUUCUCAACUAUGACACGCAAAACGAGUGCUCCGUUGAAUGGAGUUUAACAUG [A30U C85A C95A C125A U148A],≤ -4.2
8,GGAUCUUCUCGAUCUAACAAAAAAGACAAGUCUGCCACAAAGCUUGAGAGCAUCUUCGGAUGCAGAGGCGCCAGCCUACGGUGGCGCGAUAGCGGCAACGUUCUCAACUAUGACCCGCAAAACGCGUGCUCCGUUGAAUGGAGUUUAUCAUG [A30G G71C U78A C95G A115C],≤ -4.2
9,GGAUCUUCUCGAUCUAACAAAAAAGACAAGUCUGCCACAAAGCUUGAGAGCAUCUUCGGAUGCAGAGGCGGCAGGCUUCGGCGGCGCGAUAGCGCCAAAGUUCUCAACUAUGACACGCAAAACGCGUGCUCCGUUGAAUGGAGUUUAUCAUG [A30G C75G U82C C99A],≤ -4.2
10,GGAUCUUCUCGAUCUAACAAAAAAGACAAUUCUGCCACAAAGCUUGAGAGCAUCUUCGGAUGCAGAGGCGGCAGCCUUCGGUGGCGCGUUAGUGCCAACGUUCUCAACUAUGACACGCAGAACGGGUGCUCCGUUGAAUGAAAUUUCUCAUG [A30U A89U C93U A120G C125G G141A G143A A147C],≤ -4.2
11,GGAUCUUCUCGAUCUAACAAAAAAGACAAUUCUGCCAUAAAGCUUGAGACCAUCUGCGGAUGCAGAGGCGGCAGCCUUCGGUUGCGCGAUAGCGCCAACGUUCUCAACUAUGACACGCAAAACGCGUGCUCCGUUGCAUGGAGUUUAUCAUG [A30U C38U G50C U56G G83U A137C],≤ -4.2
12,GGAUCUUCUCGAUCUAACAAAAAAGACAAGUCUGCCACAAAGCUUGAGAGCAUCUUCGGAUGCAGAGGCGGCAGCCUUCGGUUGCGCGAUAGCGCCAACGUUCUCAACUAUGACACACAAAACGCGUGCUCCGUUGAAUGGAGUUUAUCAUG [A30G G83U G117A],≤ -4.2
13,GGAUCUUCUCGAUCUAACAAAAAAGACAAGUCUGCCACAAAGCUUGGGAGCAUCUUCGGAUGCAGAGGCGCCAGCCUUCGGUGGCGGGAUAGCGCCAACGUUCUCAACUAUGACACGCAAAACGCGUGCUCCGUGGAAUGGAGUUUAUCAUG [A30G A47G G71C C87G U135G],≤ -4.2
14,GGAUCUUCUCGAUCUAACAAAAAAGACAAUUUUGCCACAAAGCUUGAGAUUAUCUUCGGAUGCAGAGGCGGCAGCCUUCGGCGGCGCGAUAGCGCCAACGUUCUCUACUAUGACACGCCAAACGCGUGCUCCGUUGAAUGGAGUUUAUCAUG [A30U C32U G50U C51U U82C A106U A119C],≤ -4.2
15,GGAUCUUCUCGAUCUAACAAAAAAGACAAUUCUGCCACAAAGCUUGAGAGCAUCUUCGGAUGCAGAGGCGGCAGCCUUCGGUGGCGCGAUAGCGCCAACGUUCUCAACUAUGACACGCAAAACGCGUGCUCCGUUGAAUGGAGUUUAUCAUG [A30U],-2.87
16,GGAUCUUCUCGAUCUAACAAAAAAGACAAGUCUGCCACAAAGCUUGAGAGCAUCUUCGGAUGCAGAGGCGGCAGCCUUCGGUGGCGCGAUAGCGCCAACGUUCUCUACUAUGACUAGCAGAACGCGUGCUCCGUUGAAUGGAGUUUAUCAUG [A30G A106U A115U C116A A120G],≤ -4.2
17,GGAUCUUCUCGAUCUAACAAAAAAGACAAGUCUGCCACAAAGCUUGAGAGCCUCUUCGGCUGCAGAGGCGGCAGCCUUCGGUGGCGCGAUAGCGCCAACGUUCUCAACUAUGACACGCAAAACGUGUGCUCCGUUGAAUGGAGUUUAUCAUG [A30G A52C A60C C125U],≤ -4.2
18,GGAUCUUCUCGAUCUAACAAAAAAGACAAGUCUGCCACAAAGCUUGUGAGCAACUUCGGAUGCAGAGGCGGCAGCGUUCGGUGGCGCGAUAGCGCUAACGUUCUCAACUAUGACACGAAAAACGCGUGCUCCGUUGAAUGGAGUUUAUCAUG [A30G A47U U53A C76G C96U C118A],≤ -4.2
19,GGAUCUUCUCGAUCUAACAAAAAAGACAAGUGUGCCACAAAGCUUGAGAGCAUCUUCGGAUGCAGAGGCGGCAGCCUUCGGUGGGGCGACAGGGCCAACGUUCUCAACUAGGUCACGCAAAACGCGUGCUCCGUUGAAUGGAGUUUAUCAUG [A30G C32G C85G U90C C93G U111G A113U],≤ -4.2
